From patent US20190119394A1

Target: Death receptor 4 (DR4) on primary human pancreatic stellate cells (human) (UniProt O00220)
Assay: cell-based or functional assay

mapatumumab (human anti-DR4 antibody, Creative Biolabs)
caspase-3/7 activity (apoptosis marker), culture-activated PSCs, 10^3 ng/mL: 1.27 fold
